Results from patent US20210155689A1 (SHANGHAI PHARMAEXPLORER, published 2021).

What was measured:
[1] = biological target: T1, human LAG-3 on cells (HEK293-hLAG-3 stable cell line) (human, UniProt P18627 23-525); test: FACS, HEK293-hLAG-3, antibody 0.000 nM
T1 sequence: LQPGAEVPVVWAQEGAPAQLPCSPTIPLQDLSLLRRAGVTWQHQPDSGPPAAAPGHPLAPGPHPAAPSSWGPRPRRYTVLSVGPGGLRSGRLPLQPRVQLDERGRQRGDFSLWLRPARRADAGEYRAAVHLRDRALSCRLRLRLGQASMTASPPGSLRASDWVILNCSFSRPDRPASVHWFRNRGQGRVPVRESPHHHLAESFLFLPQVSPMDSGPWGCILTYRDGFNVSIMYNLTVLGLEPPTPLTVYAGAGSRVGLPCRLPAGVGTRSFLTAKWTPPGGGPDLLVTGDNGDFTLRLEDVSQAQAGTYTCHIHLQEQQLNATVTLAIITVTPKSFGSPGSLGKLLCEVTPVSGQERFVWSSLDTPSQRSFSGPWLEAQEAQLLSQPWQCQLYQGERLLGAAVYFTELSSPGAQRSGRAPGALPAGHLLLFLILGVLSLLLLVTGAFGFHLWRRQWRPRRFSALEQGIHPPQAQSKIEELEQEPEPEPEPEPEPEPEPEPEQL
Source text: (§1) The pIRES plasmid with the monkey-derived full-length gene was transfected into the HEK293 cell line to construct a HEK293 stable cell line containing monkey LAG-3 (herein referred to as HEK293-cLAG-3 stable cell line). The HEK293-hLAG-3 stable cell line and HEK293-cLAG-3 stable cell line were expanded in a T-75 cell culture flask to a 90% confluence. The medium was aspirated, and the cells were washed with HBSS (Hanks' Balanced Salt Solution) 1-2 times, then treated with a enzyme-free cell dissociation fluid (Versene solution: Life technology) and the cells were collected. The cells were washed with HBSS buffer for 1-2 times. After counted, the cells were diluted with HBSS to 1-2×10⁶ cells per ml, added with 1% goat serum blocking solution, incubated on ice for 20-30 minutes, and then washed with HBSS for 2 times by centrifugation. The collected cells were suspended in the FACS buffer (HBSS+1% BSA) to 2×10⁶ cells/ml, added as 100 microliters per well to a 96-well FACS reaction plate, added with 100 microliters per well of the antibody sample to be tested, incubated on ice for 1-2 hours. The plate was washed twice with the FACS buffer by centrifugation, added with 100 microliters of fluorescent (Alexa 488)-labeled secondary antibodies per well, and incubated on ice for 0.5-1.0 hours. The plate was washed 2-3 times with FACS buffer by centrifugation, added with 100 μl fixative solution (4% Paraformaldehyde) per well to suspend the cells. 5-10 minutes later, it was washed 1-2 times with FACS buffer by centrifugation. The cells were suspended with 100 microliters of FACS buffer, FACS (FACSCalibur, BD) was used for detection and the results were analyzed.

[2] = biological target: T2, human LAG-3 (full length, on the cell surface) (human, UniProt P18627 23-525); test: FACS, HEK293-hLAG-3; 200.000 nM
T2 construct: Full-length human LAG-3 expressed on cells; also called HEK293-hLAG-3; HEK293 cells transfected with LAG-3 gene
T2 sequence: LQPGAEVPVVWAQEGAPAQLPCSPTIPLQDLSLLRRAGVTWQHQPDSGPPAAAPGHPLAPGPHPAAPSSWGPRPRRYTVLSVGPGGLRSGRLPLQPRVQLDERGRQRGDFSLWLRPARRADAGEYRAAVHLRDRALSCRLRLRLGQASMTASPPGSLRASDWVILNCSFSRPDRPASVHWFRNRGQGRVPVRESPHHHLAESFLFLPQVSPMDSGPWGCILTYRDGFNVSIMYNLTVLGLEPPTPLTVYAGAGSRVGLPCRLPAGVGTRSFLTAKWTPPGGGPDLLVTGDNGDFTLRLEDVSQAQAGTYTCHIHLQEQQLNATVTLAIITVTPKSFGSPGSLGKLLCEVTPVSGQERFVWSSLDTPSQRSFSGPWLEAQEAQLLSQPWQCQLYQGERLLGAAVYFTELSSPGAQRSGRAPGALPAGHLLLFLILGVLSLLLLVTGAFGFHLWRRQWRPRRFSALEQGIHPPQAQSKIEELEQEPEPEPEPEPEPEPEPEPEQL
Source text: as §1

[3] = biological target: T3, human LAG-3 protein with hFc tag (hLAG-3-hFc protein) (human, UniProt P18627 23-450); test: ELISA, hLAG-3-hFc coated; 0.0067 nM
T3 construct: also called immunogen 1; LAG-3 extracellular domain protein; not shown: human IgG Fc fragment (hFc) of the pCpC vector
T3 sequence: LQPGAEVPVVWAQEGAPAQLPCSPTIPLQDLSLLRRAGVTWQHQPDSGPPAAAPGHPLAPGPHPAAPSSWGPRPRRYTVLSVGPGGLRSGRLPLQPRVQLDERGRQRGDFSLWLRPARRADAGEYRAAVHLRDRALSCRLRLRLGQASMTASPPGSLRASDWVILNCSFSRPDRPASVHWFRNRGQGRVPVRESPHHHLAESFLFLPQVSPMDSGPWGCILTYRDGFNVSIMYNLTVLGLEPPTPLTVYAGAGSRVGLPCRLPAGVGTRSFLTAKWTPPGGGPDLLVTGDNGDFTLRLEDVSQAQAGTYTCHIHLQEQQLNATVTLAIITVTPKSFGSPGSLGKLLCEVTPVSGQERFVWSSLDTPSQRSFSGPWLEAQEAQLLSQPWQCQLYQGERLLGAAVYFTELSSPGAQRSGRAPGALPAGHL
Description: (§2) The plate was sealed with plastic film and incubated overnight at 4° C. The plate was washed 2 times with the plate washing solution (PBS+0.01% Tween20) on the next day, and added with the blocking solution (PBS+0.01% Tween20+1% BSA) and blocked at room temperature for 1-2 hours. The blocking solution was poured out, and the plate was added with 50-100 μl of the antibody sample to be tested to each well, incubated at 37° C. for 1-2 hours, and washed 2-3 times with a plate washing solution (PBS+0.01% Tween20). HRP (horseradish peroxidase) labeled secondary antibody was added, and the plate was incubated at 37° C. for 1-2 hours, and washed 2-3 times with a plate washing solution (PBS+0.01% Tween20). 100 μl of TMB substrate was added to each well. After incubated at room temperature for 15-30 minutes, the plate was added with 100 μl of stop solution (1.0N HCl) to each well.

[4] = biological target: T4, mouse LAG-3 protein with hFc tag (mLAG-3-hFc protein) (mouse; human, UniProt Q61790 24-442); test: ELISA, mLAG-3-hFc coated; 0.0000 nM
T4 construct: Made in HEK293 cells; also called mouse LAG-3 extracellular domain protein; not shown: human IgG Fc fragment (hFc) of the pCpC vector
T4 sequence: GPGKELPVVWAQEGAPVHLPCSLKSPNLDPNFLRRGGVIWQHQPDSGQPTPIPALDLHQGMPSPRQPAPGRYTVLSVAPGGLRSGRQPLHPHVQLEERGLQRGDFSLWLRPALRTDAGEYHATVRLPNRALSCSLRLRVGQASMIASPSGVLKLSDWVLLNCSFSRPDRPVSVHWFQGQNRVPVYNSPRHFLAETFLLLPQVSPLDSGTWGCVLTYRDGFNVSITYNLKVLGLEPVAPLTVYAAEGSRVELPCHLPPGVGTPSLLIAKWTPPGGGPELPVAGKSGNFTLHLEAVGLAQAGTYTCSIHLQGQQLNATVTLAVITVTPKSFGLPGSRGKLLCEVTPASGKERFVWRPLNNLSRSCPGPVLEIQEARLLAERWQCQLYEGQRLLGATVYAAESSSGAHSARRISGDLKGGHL
Description: as §2

| Binder | Mean fluorescence intensity [1] | Mean fluorescence intensity [2] [MFI] | OD450 [3] [OD450] | OD450 [4] [OD450] |
| --- | --- | --- | --- | --- |
| 556F6B8 mouse-human chimeric antibody (antibody, V domains shown, also called mAb123-556F6B8; 556F8B8) VH: RVQLKQSGPGLVQPSQSLSITCTVSGFSLIKYGVHWVRQSPGEGLEWLGVIWRGGITDYNAAFMSRLSITKDNSKSQVFFKMNSLQADDTAIYYCAKWDGPLAMDYWGQGTSVTVSS VL: DIVMTQSHKFLSTSVGDRVSITCKASQDVGTTVAWYQQKPGQSPKLLIYWASTRHTGVPDRFTGSGSGTDFTLTISNVQSEDLADYFCQQYSSYPYTFGGGTKLEIK | 3.3 |  |  |  |
| 556F6B8 (mouse antibody purified from hybridoma) (antibody, V domains shown, also called mAb123-556F6B8) VH: RVQLKQSGPGLVQPSQSLSITCTVSGFSLIKYGVHWVRQSPGEGLEWLGVIWRGGITDYNAAFMSRLSITKDNSKSQVFFKMNSLQADDTAIYYCAKWDGPLAMDYWGQGTSVTVSS VL: DIVMTQSHKFLSTSVGDRVSITCKASQDVGTTVAWYQQKPGQSPKLLIYWASTRHTGVPDRFTGSGSGTDFTLTISNVQSEDLADYFCQQYSSYPYTFGGGTKLEIK |  | 83.7 |  |  |
| 556F6B8 (LAG-3 mouse-human chimeric antibody) (antibody, V domains shown, also called 556F8B8) VH: RVQLKQSGPGLVQPSQSLSITCTVSGFSLIKYGVHWVRQSPGEGLEWLGVIWRGGITDYNAAFMSRLSITKDNSKSQVFFKMNSLQADDTAIYYCAKWDGPLAMDYWGQGTSVTVSS VL: DIVMTQSHKFLSTSVGDRVSITCKASQDVGTTVAWYQQKPGQSPKLLIYWASTRHTGVPDRFTGSGSGTDFTLTISNVQSEDLADYFCQQYSSYPYTFGGGTKLEIK |  |  | 0.38 | 0.09 |
| 405B8H3 (mouse antibody purified from hybridoma) (antibody, V domains shown, also called mAb103-405B8H3; 405B81-13) VH: QVQLQQSGAELVRPGASVTLSCKASGYTFTDYEMHWVKQTPVHGLEWIGATDPETGNSAYNQKFKGKAIMTADKSSSTAYMELRSLTSEDSAVYYCISTGWNDWGQGTSLTVSS VL: DIKMTQSPSSMYASLGERVTITCKASQDINSYLSWFQQKPGKSPKTLIYRADRLLDGVPSRFSGSGSGQDYSLTISSLEYGDMGIYYCLQYDEFPYTFGGGTKLEIK |  | 324 |  |  |
| 105F1E10 mouse-human chimeric antibody (antibody, V domains shown, also called mAb009-105F1E10) VH: EVQLQQSGPELVKPGASVKMSCRASGYTFTDFKMHWMKQSHGKSLEWIGYIAPNNGGTAYNQKFRGKATLTVNESSNTAYMELRSLTSEDSAVYYCVDWDDVDYWGQGTTLTVSS VL: DIKMTQSPSSMYASLGERVTITCKASQDINSYLSWFQQKSGKSPKTLIYRANRLVDGVPSRFSGSGSGQDYSLTISSLEYEDMGIYYCLQYVEFPLTFGAGTKLELK | 2.6 |  |  |  |
| 405B8H3 (LAG-3 mouse-human chimeric antibody) (antibody, V domains shown, also called mouse-human chimeric antibody 405B8H3) VH: QVQLQQSGAELVRPGASVTLSCKASGYTFTDYEMHWVKQTPVHGLEWIGATDPETGNSAYNQKFKGKAIMTADKSSSTAYMELRSLTSEDSAVYYCISTGWNDWGQGTSLTVSS VL: DIKMTQSPSSMYASLGERVTITCKASQDINSYLSWFQQKPGKSPKTLIYRADRLLDGVPSRFSGSGSGQDYSLTISSLEYGDMGIYYCLQYDEFPYTFGGGTKLEIK |  |  | 0.57 | 0.1 |
| 105F1E10 (LAG-3 mouse-human chimeric antibody) (antibody, V domains shown) VH: EVQLQQSGPELVKPGASVKMSCRASGYTFTDFKMHWMKQSHGKSLEWIGYIAPNNGGTAYNQKFRGKATLTVNESSNTAYMELRSLTSEDSAVYYCVDWDDVDYWGQGTTLTVSS VL: DIKMTQSPSSMYASLGERVTITCKASQDINSYLSWFQQKSGKSPKTLIYRANRLVDGVPSRFSGSGSGQDYSLTISSLEYEDMGIYYCLQYVEFPLTFGAGTKLELK |  |  | 0.3 | 0.08 |
| 105F1E10 (mouse antibody purified from hybridoma) (antibody, V domains shown, also called mAb009-105F1E10) VH: EVQLQQSGPELVKPGASVKMSCRASGYTFTDFKMHWMKQSHGKSLEWIGYIAPNNGGTAYNQKFRGKATLTVNESSNTAYMELRSLTSEDSAVYYCVDWDDVDYWGQGTTLTVSS VL: DIKMTQSPSSMYASLGERVTITCKASQDINSYLSWFQQKSGKSPKTLIYRANRLVDGVPSRFSGSGSGQDYSLTISSLEYEDMGIYYCLQYVEFPLTFGAGTKLELK |  | 330 |  |  |
| 409D4E10 (LAG-3 mouse-human chimeric antibody) (antibody, V domains shown) VH: QVQLQQSGAELVRPGASVTLSCKASGNTFTDYEMHWVKQTPVHGLEWIGATDPETDNTAYNQKFKGKAILTTDKSSSTAYMELRSLTSEDSAVYYCITSGWNDWGQGTSLTVSS VL: DIKMTQSPSSMYASLGERVTITCKASQDINSYLSWFQQKPGKSPKTLIYRANRLLDGVPSRFSGSGSGQDYSLTISSLEYEDMGIYYCLQYNEFPYTFGGGTKLEIK |  |  | 0.63 | 0.09 |
| 409B11E12 (mouse antibody purified from hybridoma) (antibody, V domains shown, also called mAb104-409B11E12) VH: QVQLQQSGAELVRPGASVTLSCKASGYTFTDYEMHWVKQTTVHGLEWIGATDPETSYSAYNQKFKGKAILTADKSSSTAYMELRSLTSEDSAVYYCIATGWNDWGQGTSLTVSS VL: DLKMTQSPSSMYASLGERVTITCKASQDINSYLSWFQQKPGKSPKTLIYRANRLLDGVPSRFSGSGSGQDYSLTISSLEYEDMGIYYCLQYDEFPYTFGGGTKLEIK |  | 144 |  |  |
| 409B11E12 (LAG-3 mouse-human chimeric antibody) (antibody, V domains shown) VH: QVQLQQSGAELVRPGASVTLSCKASGYTFTDYEMHWVKQTTVHGLEWIGATDPETSYSAYNQKFKGKAILTADKSSSTAYMELRSLTSEDSAVYYCIATGWNDWGQGTSLTVSS VL: DLKMTQSPSSMYASLGERVTITCKASQDINSYLSWFQQKPGKSPKTLIYRANRLLDGVPSRFSGSGSGQDYSLTISSLEYEDMGIYYCLQYDEFPYTFGGGTKLEIK |  |  | 0.47 | 0.08 |
| 409D4E10 (mouse antibody purified from hybridoma) (antibody, V domains shown, also called mAb112-409D4E10) VH: QVQLQQSGAELVRPGASVTLSCKASGNTFTDYEMHWVKQTPVHGLEWIGATDPETDNTAYNQKFKGKAILTTDKSSSTAYMELRSLTSEDSAVYYCITSGWNDWGQGTSLTVSS VL: DIKMTQSPSSMYASLGERVTITCKASQDINSYLSWFQQKPGKSPKTLIYRANRLLDGVPSRFSGSGSGQDYSLTISSLEYEDMGIYYCLQYNEFPYTFGGGTKLEIK |  | 154 |  |  |
